The values below come from paper PMC12132507 (bioRxiv, 2025).

B1: N-terminal domain of the clathrin heavy chain, TD40 (domain or fragment)
chain: MAQILPIRFQEHLQLQNLGINPANIGFSTLTMESDKFICIREKVGEQAQVVIIDMNDPSNPIRRPISADSAIMNPASKVIALKAGKTLQIFNIEMKSKMKAHTMTDDVTFWKWISLNTVALVTDNAVYHWSMEGESQPVKMFDRHSSLAGCQIINYRTDAKQKWLLLTGISAQQNRVVGAMQLYSVDRKVSQPIEGHAASFAQFKMEGNAEESTLFCFAVRGQAGGKLHIIEVGTPPTGNQPFPKKAVDVFFPPEAQNDFPVAMQISEKHDVVFLITKYGYIHLYDLETGTCIYMNRISGETIFVTAPHEATAGIIGVNRKGQVLSVCVEEENIIPYITNVLQNPDLALRMAVRNNLAGAEEL

In test [1] the target is T1, Eps15IDR (C-terminal intrinsically disordered region of human Eps15, residues 481 to 897) (human, UniProt P42566 481-896).
T1 sequence: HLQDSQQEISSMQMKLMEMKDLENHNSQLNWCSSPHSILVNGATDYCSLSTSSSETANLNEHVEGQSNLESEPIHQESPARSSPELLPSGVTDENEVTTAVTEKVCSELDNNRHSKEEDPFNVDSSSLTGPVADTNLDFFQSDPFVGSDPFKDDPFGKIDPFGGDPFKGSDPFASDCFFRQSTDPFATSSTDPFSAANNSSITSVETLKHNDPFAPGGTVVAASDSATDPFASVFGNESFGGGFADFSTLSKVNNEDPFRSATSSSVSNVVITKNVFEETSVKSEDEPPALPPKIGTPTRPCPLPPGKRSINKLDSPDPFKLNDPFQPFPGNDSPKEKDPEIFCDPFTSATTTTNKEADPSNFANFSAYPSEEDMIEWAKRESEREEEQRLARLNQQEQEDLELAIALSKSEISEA
Briefly: NMR titration.

In test [2] the target is B1. Briefly: NMR titration.

Regarding B1, the binding result in test [1] was “binds”.

B2: Eps15(569-671) (domain or fragment)
chain: SGVTDENEVTTAVTEKVCSELDNNRHSKEEDPFNVDSSSLTGPVADTNLDFFQSDPFVGSDPFKDDPFGKIDPFGGDPFKGSDPFASDCFFRQSTDPFATSST
On to B2, for which the binding result in test [2] was “binds”.

B3: Eps15(648-780) (domain or fragment)
chain: KGSDPFASDCFFRQSTDPFATSSTDPFSAANNSSITSVETLKHNDPFAPGGTVVAASDSATDPFASVFGNESFGGGFADFSTLSKVNNEDPFRSATSSSVSNVVITKNVFEETSVKSEDEPPALPPKIGTPTR
B3: the binding result in test [2] is reported as “binds”.
